According to the supplement of paper PMC10567573:

B1: FBXO3 (parent)
chain: DEEERRRRVFDVPIRRRRCSRLF

Variants of: B1
Experiment: protein stability index of a GFP-peptide fusion (GPS, HEK-293T) (PSI 1-6); higher = more stable
Conditions: c terminus: native
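Also: lentivirally expressed fusions sorted by FACS into six bins by GFP to DsRed ratio, PSI derived from sequencing read proportions per bin multiplied by bin number.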

Protein stability index, by site and new letter:
V9: M 2.47; G 3.87; Q 3.45; K 3.72; R 2.71; F 2.19; Y 2.64; H 3.54; N 3.75; L 2.53; C 2.74; T 3.65; S 3.47; A 3.43; E 4.03; P 3.44; W 2.94; D 4.46; I 2.42
C19: Y 3.36; M 3.23; S 4.15; K 4.77; T 3.63; F 3.76; A 3.62; I 3.49; W 3.64; H 4.39; Q 4.39; P 2.56; G 1.93; D 3.44; N 4.56; R 4.59; V 3.22; E 1.83; L 3.54
E4: T 2.14; I 2.16; S 2.08; C 2.58; Y 2.14; G 2.48; P 2.29; K 1.98; N 1.92; L 1.59; F 2.13; H 1.99; Q 2.72; R 2.9; M 3.23; A 1.98; V 1.86; W 1.73; D 3.66
I14: N 2.25; V 3.27; G 3.04; D 2.14; H 2.48; F 2.2; S 2.49; T 3.66; C 2.38; P 3.4; A 2.64; K 3.78; L 2.56; R 3.33; Y 2.4; M 2.63; E 2.46; Q 2.53; W 2.7
R8: M 2.89; F 1.28; C 2.33; I 2.88; N 3.35; Y 1.95; G 4.29; K 2.87; S 3.01; P 3.63; L 2.94; D 3.58; E 3.64; Q 3.66; T 3.86; H 3.1; A 3.74; V 3.66; W 2.4
R18: H 2.18; C 2.29; S 2.26; V 1.83; N 1.76; A 1.69; Y 1.95; M 2.31; G 3.74; E 2.38; F 1.57; T 1.7; W 2.31; I 1.34; K 2.83; Q 1.78; L 2.68; P 1.7
R15: G 2.74; L 1.98; C 2.99; P 2.56; H 1.85; V 2.78; Q 2.27; K 3.65; A 2.88; I 2.31; T 2.72; E 2.44; Y 1.88; S 2.39; F 1.93; D 2.27; N 2.21; M 1.72
F10: G 4.62; L 3.06; I 3.84; S 4.54; Q 4.56; V 3.94; N 4.45; K 4.19; T 4.33; R 3.85; H 4.08; C 3.43; M 3.87; Y 3.22; E 4.16; D 4.51; A 4.88; P 4.32; W 2.09
R5: N 3.77; K 3.32; F 3.24; A 3.9; G 3.54; H 3.41; Y 2.85; E 4.12; D 3.64; V 3.25; W 2.23; S 3.55; M 3.59; C 2.57; T 3.51; Q 4.1; L 3.12; I 3.44; P 3.3
R16: I 2.2; K 3.51; N 2.21; S 2.28; F 1.93; E 2.55; P 3.45; T 2.19; Y 1.72; G 3.45; H 2.23; C 1.91; A 2.53; M 2.21; D 2.22; V 2.27; Q 2.24; W 1.99; L 2.19
P13: M 2.19; A 2.46; K 2.9; D 2.15; V 2.89; C 2.98; N 2.07; Y 2.8; G 2.24; W 2.87; H 2.95; S 2.23; Q 2.2; F 3.42; T 1.44; E 2.15; R 1.72; L 3.65
R17: Q 2.5; I 1.84; S 1.77; P 1.96; K 3.27; Y 1.58; D 2.17; F 1.87; G 1.98; T 2.82; H 2.21; A 2.5; W 2.83; M 2.27; N 2.09; E 2.27; C 1.71; V 2.06; L 1.84
E3: M 2.53; A 1.88; P 2.32; S 1.91; Y 1.84; Q 2.57; L 1.48; G 2.19; V 2.54; R 2.34; I 1.99; N 2.79; D 2.63; C 1.94; H 2.18; K 2.68; T 1.81
S20: I 2.05; F 2.77; E 3.04; N 2.61; L 2.36; C 4.36; H 2.68; G 3.48; A 2.15; D 2.2; P 2.51; R 3.35; K 2.69; T 1.91; M 2.04; Q 2.69
D11: H 2.19; S 2.75; R 2.25; G 2.65; C 1.53; F 1.89; I 2.93; W 1.76; N 3.06; K 2.51; T 2.84; A 2.73; E 2.68; P 3.34; L 2.33; Y 1.67; Q 2.4; V 1.99; M 2.08
R7: H 3.06; M 2.3; T 3.67; D 4; I 2.8; Q 3.69; W 1.97; F 2.61; G 3.64; E 3.88; L 3.19; Y 2.51; S 4.28; P 3.71; K 2.79; A 3.6; V 3.01; N 3.8; C 2.89
V12: N 2.28; I 2.32; H 2.69; C 1.73; Y 2.78; D 2.71; W 2.66; K 3.25; E 2.81; T 2.75; P 2.98; S 3.24; A 3.05; M 2.47; F 2.6; L 2.61; Q 3.24; R 3.62; G 3.26
R6: N 3.87; L 2.69; S 3.8; K 3.35; I 2.36; W 1.56; C 2.83; P 3.79; E 4.16; A 3.51; V 3.2; Q 3.79; M 2.58; H 3.17; Y 1.78; G 4.09; F 1.35; D 4.26; T 3.66
